The text below walks through data of the supplement of paper PMC9170038.

This data set has as its system MS2 coat protein. In words: apparent KD of MS2 coat protein; designed switch direction (-1 OFF switch, 1 ON switch): -1; higher = weaker reporter binding. The essentials:
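For each design, the apparent KD is the median over clusters of curves fitted to normalised cluster fluorescence. Clusters held RNA switches with common flanks, transcribed on Illumina chips by stalled E. coli RNA polymerase. These were titrated with SNAP-549-labelled MS2 coat protein, doubling from 0.7 or 1.5 nM to 3 µM, without input, with 200 uM small-molecule ligand, or with an oligonucleotide input.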

Where [1] appears, read: Eterna round: R95, input ligand: FMN 200 uM.
Setting [2] is: Eterna round: R95, input ligand: microRNA oligo, concentration not stated.
[3] abbreviates: Eterna round: R95, input ligand: none.
Where [4] appears, read: input ligand: microRNA oligo, concentration not stated.

As to “CUUUUGUGAGGAUAUUAGUAGUAAGUAAAUAAAAUUAUUACUAAGAAGGCACAUGAGGAUCACCCAUGUUCCUC [EX4 #81] (Eterna round: R97, puzzle: Exclusion 4)”, the “apparent KD of MS2 coat protein” value (input ligand: FMN 200 uM) amounted to 108 nM and the “apparent KD of MS2 coat protein” value (input ligand: none) is 58 nM.

Turning to “AAUAAACAUGAGGAUCACCCAUGUGAGGAUAUACAAAUAAAUAAAUAAAUAAAUAAUAGUAGAAGGCACAAUAA [Excls1-II] (puzzle: Exclusion 1)”, the “apparent KD of MS2 coat protein” value is, setting by setting: under setting [1], 35.9 nM; under setting [2], 35.3 nM; under setting [3], 44 nM.

For “UGGGUACAUGAGGAUCACCCAUGUGAGGAUAUGCCGGAAGAAUCGCAGAAAUGAGCCAGUAGAAGGCACAAGGG [Eternabot (L2) Solution 100] (Eterna round: R97, puzzle: Exclusion 1)”, the “apparent KD of MS2 coat protein” value reads like this: (input ligand: FMN 200 uM) 1300 nM; (input ligand: none) 1190 nM.

Turning to “GAGCAGCCGAUAGGAUAUUCCGAGCUAAAGAGCAGUAGGACAUGAGGAUCACCCAUGUGUGCAUGGAAGAAGGGUCACUUCCAG [Eternabot solution 23] (Eterna round: R96, puzzle: Exclusion NG 2)”, the “apparent KD of MS2 coat protein” value amounted to 25.8 nM (input ligand: FMN 200 uM), 24.2 nM under setting [4] and 30.7 nM (input ligand: none).

“AGCUGUGGCCGAGGAUAUCUGACUUCAAUAACCGAAAUAUAAUCGGACAUGAGGAUCACCCAUGUAGAGAAGGCGGUCUCAGCA [Eli eng2 - 083] (Eterna round: R96, puzzle: Exclusion NG 2)”: the “apparent KD of MS2 coat protein” value under setting [4] was found to be 12.5 nM.

As for “CUGGUCCGAGGAUAUAUUAAGUGAUACAUGAGGAUCACCCAUGUAAUUUGAUGGAUGUAAAUAGAAGGCGGACUAG [JL-ex5-3.10] (puzzle: Exclusion 5)”, the “apparent KD of MS2 coat protein” value was 36.8 nM under setting [1], 63.5 nM under setting [2] and 45 nM under setting [3].

Take “AAUUAUUAUUGAGGAUAUCGUAUUGAAACAAUAUGAGAAGGCGGGAUAAACAUGAGGAUCACCCAUGUGAGCCUGAUGCUUGUG [Ex NG1 #40] (Eterna round: R96, puzzle: Exclusion NG 1)”: the “apparent KD of MS2 coat protein” value under setting [4] came to 15.3 nM.

For “GAUUCGCGAGGAUAUACAGUCGAGUCCAUUACGUGUCUCGGACUUGAGGAUCACCCAAGUAGAAGGCGUCUCAU [salish99_ex2_r4_637] (Eterna round: R97, puzzle: Exclusion 2)”, the “apparent KD of MS2 coat protein” value reads like this: (input ligand: FMN 200 uM) 55.8 nM; (input ligand: none) 57.8 nM.

Take “CUGUACUGAGGAUAUACAUGAGGAUCACCCAUGUGUCCUGGCUAGGAAACUAGCAAAGGUAGAAGGCAGUACAG [Mat - Exclusion 3 - Eli Mod - D54] (Eterna round: R97, puzzle: Exclusion 3)”: the “apparent KD of MS2 coat protein” value came out at 150 nM (input ligand: FMN 200 uM) and 18.8 nM (input ligand: none).

For the sequence “CCGAGGUAGCGGUCCUAUGACAUGAGGAUCACCCAUGUACCUCGCUACGAGCUUUUUGCUCGUCAUAUAAUUCUCGG [Mat - Sensor v3 - turn-off var 1 - JL Mod - D30] (puzzle: Sensor v3, turn-off variant 1)”, the “apparent KD of MS2 coat protein” value by setting is: under setting [1], 45.4 nM; under setting [2], 57.9 nM; under setting [3], 66.3 nM.

On to “AAGAAACAUGAGGAUCACCCAUGUGAGGAUAUGGCCCGCCCGGCGUGAGCUGGUUUUGUCAGAAGGCGCAAAGG [salish99_ex1_r4_018] (Eterna round: R97, puzzle: Exclusion 1)”, for which the “apparent KD of MS2 coat protein” value amounted to 53.9 nM (input ligand: FMN 200 uM) and 50.8 nM (input ligand: none).

In the case of “UGUUGUCGCGUAGGAUAUGAGGAUCACCCAUAUACAGGAUAUGAAAAGAAGGGUCUGAGGAUCACCCAGAAGGACGGGACAACU [pwkr exNG2 2xF5 2xFMN.28] (Eterna round: R96, puzzle: Exclusion NG 2)”, the “apparent KD of MS2 coat protein” value (input ligand: FMN 200 uM) stood at 1390 nM, the “apparent KD of MS2 coat protein” value under setting [4] came out at 94.9 nM and the “apparent KD of MS2 coat protein” value (input ligand: none) stood at 116 nM.

Consider “CGUAUGUGAGGAUAUGACAAUGGUAUCUUCGGAUACCAUUGUCAGAAGGAACAUGAGGAUCACCCAUGUAGAUC (puzzle: Exclusion 4)”, for which the “apparent KD of MS2 coat protein” value under setting [2] turned out to be 44.8 nM.
